Target: T1, Trm7-A26P-PT (S. cerevisiae, UniProt P38238 1-310, A26P)
T1 sequence (looked up): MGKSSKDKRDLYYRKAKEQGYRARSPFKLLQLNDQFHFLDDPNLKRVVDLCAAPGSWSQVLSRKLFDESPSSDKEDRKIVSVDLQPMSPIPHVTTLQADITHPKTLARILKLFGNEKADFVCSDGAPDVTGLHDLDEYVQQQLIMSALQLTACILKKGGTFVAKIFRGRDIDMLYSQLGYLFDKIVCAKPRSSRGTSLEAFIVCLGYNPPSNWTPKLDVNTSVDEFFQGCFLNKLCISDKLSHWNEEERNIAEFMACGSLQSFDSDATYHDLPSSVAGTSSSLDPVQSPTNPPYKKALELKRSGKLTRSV
Experiment: pull-down

fold of Trm734-9myc pulled down against Trm7-MORF from a CEN plasmid: ~10 fold
B1: Trm734-9myc (natural protein, S. cerevisiae, UniProt Q08924 1-1013, looked up)
chain: MKDLSHYGPALCVKFYNDYVLAGYGPFIHVYDYHSATLINKCRLFHYNKVHGLSLSSEGKILAYGARSVTIVELEDVLKKESLVDFERINSDWITGATFSFDNLQIYLLTCYNKVLICDLNCEVLFRKSLGGERSILYSGIIKVFGPDKVYVNAGTVMGGVIIWDLFSETKIHNLLGHEGSIFYVNLSNNGRYVASCSDDRSIRLWDLETGKQLSVGWSHTARIWNLMFFDNDSKLISVSEDCTCRVWNIIESRENVAELSISNVYEVHLIKSIWGVDVKDDEMIAVTSGNDGRLKLIDLLQLKRHGDEETSFSLDDIAKQCGDIFEKNESIKGFQWFSFGVIAITSLGKILKYSDVTKQWKLLLTNEKFNSYPITNGIQTQNIAVFSNNKSDILLIKFSKDSADIIETEEFHLDELSKTNNCLVTEYDDDSFLLTLQSPNPREKFVCLEISLQNLKIKSKHCFNKPENFSSSCLTSFRNHILVGSRFSTLVIYNLLDESEEPFIIRRLSPGDTTTSIEFVEDKDNSAVFSVTNRDGYYVFIELTKNSLEEGPYRLSYKVLHSNKMMKGFLEGAFFNSKGEYITYGFKSSLFYLYNETNCYELASEVCGGSHRLWNLAKITDGHVLMYIKASRFHLRKIYNSIVPETLENGVHGREIRDISICPVSNTNTNDNFKDGHIFCTASEDTTIKLGYFNNRTGKVQNFWTQRKHVSGLQRCQFINHKLMISSSAREELFLWELNDKYNKRPYMTIRQALPVSTNNSDLRIMDFDVKFISQSGDFLLVTVYSDSTIKIWHYRENQNKFDLIMQGRYKTCCLFNVVFIALKEELLVVISPTDGHLVVYNITEYVPFSVDPISGDLVDHKLDATISNLPAPVAQLPVHQSGVKSLDYVANATRTSATILTGGDDNGLGLSNLKLDDSNKVTLKTSDFIAAAASSTITSGMLINGGKEVITTSVDQVIRAWEITAGKLSLVDKKRTTVADTGSLEIISNDEDADSEKTLLIGGVGLSIWKK

— publication PMC4643400 (Human mutation, 2015)
